Data on 2 proteins can be found in paper PMC2963697.

Substrate in series [1]: C=CC=C(O)C(=O)O
As to the kind of experiment: UV spectrophotometric tautomerase assay, steady state. The class given is biochemical, Archaeoglobus fulgidus. To be noted: reaction 3 -> 6, 20 mM sodium phosphate, pH 7.3, 23 °C.

Substrate in series [2]: C=CC=C(O)C(=O)O
Described as above. The class given is biochemical, Helicobacter pylori. The conditions noted are these: reaction 3 -> 6, 20 mM sodium phosphate, pH 7.3, 23 °C.

B1: AfDmpI (Archaeoglobus fulgidus DSM 4304) (protein)
chain: PVLIVYGPKLDVGKKREFVERLTSVAAEIYGMDRSAITILIHEPPAENVGVGGKLIADRERE
On to B1, for which, in series [1], the Km was determined as 90 ± 30 µM, the kcat was determined as 0.1 ± 0.02 s⁻¹ and the specificity constant (kcat/Km) came to 1100 M⁻¹ s⁻¹.

B2: HpDmpI (Helicobacter pylori 26695) (protein)
chain: PFINIKLVPENGGPTNEQKQQLIEGVSDLMVKVLNKNKASIVVIIDEVDSNNYGLGGESVHHLRQKN
Regarding B2, in series [2], the Michaelis constant (Km) worked out at 190 ± 40 µM, the kcat was 2.5 ± 0.3 s⁻¹ and the kcat/Km was determined as 13000 M⁻¹ s⁻¹.

As usually defined, the Km is the substrate concentration at which the rate is half of its maximum. Usually kcat stands for the maximal rate divided by the concentration of active sites. One may read the kcat/Km as the second-order rate constant that governs catalysis at low substrate concentration.
